Drawing on US20070141665A1, this text covers IC50 for one substance.

In this experiment the target is Cavβ3-I-II2.1 chimera (rat β3 subunit fused at its C-terminal end to the I-II loop of the rabbit Cavα2.1 subunit), [35S]-labelled (rat; rabbit) (UniProt P54287). The experiment can be described thus: Gβγ (10 to 900 nM) displaces the intramolecular Cavβ-AID2.1 binding of [35S] Cavβ3-I-II2.1; read as binding of the chimera to GST-AID1.2 after 30 min at 30 °C, SDS-PAGE and autoradiography.
Sequence of UniProt P54287 (P54287 other isoform, or with tags, fused parts or gaps mutant): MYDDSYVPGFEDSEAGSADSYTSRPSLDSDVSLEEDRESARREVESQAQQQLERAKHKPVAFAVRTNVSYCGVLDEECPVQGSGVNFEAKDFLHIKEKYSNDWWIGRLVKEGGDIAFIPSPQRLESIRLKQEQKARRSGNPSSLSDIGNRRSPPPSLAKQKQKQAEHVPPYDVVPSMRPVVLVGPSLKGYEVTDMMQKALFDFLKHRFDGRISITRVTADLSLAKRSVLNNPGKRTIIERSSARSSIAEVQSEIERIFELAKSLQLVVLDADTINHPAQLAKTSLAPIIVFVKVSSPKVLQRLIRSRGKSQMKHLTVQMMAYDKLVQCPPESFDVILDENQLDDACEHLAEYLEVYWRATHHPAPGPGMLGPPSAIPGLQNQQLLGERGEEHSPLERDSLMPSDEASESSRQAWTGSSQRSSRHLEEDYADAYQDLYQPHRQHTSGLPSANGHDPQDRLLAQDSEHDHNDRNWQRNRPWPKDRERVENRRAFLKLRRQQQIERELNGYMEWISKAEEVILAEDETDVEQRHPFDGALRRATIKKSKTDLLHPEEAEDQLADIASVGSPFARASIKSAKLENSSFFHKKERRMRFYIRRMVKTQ

Regarding G-protein Gβγ complex (Calbiochem), the IC50 (in general, the point on the concentration scale where inhibition reaches its midpoint) was 160 nM.
